± gives the standard error. This sample holds only a part of the variants without activity.
B1: glmS ribozyme (parent)
chain: AUAAAAGCGCCAGAACUACAGAAAUGUAGUUGACGAGGAGGAGGUUUAUCGAAUUUUCGGCGGAUGCCUCCAAA

How the values were obtained:
Settings in all cases: with glucosamine-6-phosphate
glucosamine-6-phosphate [1] = variants of: B1; assay: self-cleavage kobs at 640 uM GlcN6P; higher = faster cleavage; RNA array
In short: (§1)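 Tracking of barcoded ribozyme variants used a hybridised Cy3 probe at 37 °C, after in situ transcription by E. coli RNA polymerase on sequenced MiSeq chips. The flowed solution held 40 μM to 10 mM glucosamine-6-phosphate in HEPES/KCl/Mg(OAc)2 buffer, and imaging ran over ~14 h. kobs was taken from exponential decay fits of normalised per-tile medians, and kcat and KM from weighted Michaelis–Menten fits.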

glucosamine-6-phosphate [2] = variants of: B1; assay: self-cleavage kobs at 2500 uM GlcN6P; higher = faster cleavage; RNA array
In short: as §1

glucosamine-6-phosphate [3] = variants of: B1; assay: self-cleavage kobs at 10000 uM GlcN6P; higher = faster cleavage; RNA array
In short: as §1

## AUAAAAGCGCCAGAACUACAGAAAUGUAGUUGCCGAGGAGGAGGUUUAUUGAAUUUUCGUCGGAUGCCUCCAAA [A33C C50U G60U]
glucosamine-6-phosphate [1]
  self-cleavage kobs at 640 uM GlcN6P: < 1e-05 s⁻¹

## AUAAAAGCGCGAGAACUACAGAAAUGUAGUUGACGAGGUGGAGGCUUAAUGAAUUUUCGGCCGAGGCCUCCAAA [C11G A39U U45C U49A C50U G62C U65G]
glucosamine-6-phosphate [1]
  self-cleavage kobs at 640 uM GlcN6P: < 1e-05 s⁻¹

## AUAAAAGCGCCAGCACUACAGAAAUGUAGUUGACGAGGAGGAGGUUUAUAGAAUUUUCGGAGGAUGCCUCCAAA [A14C C50A C61A]
glucosamine-6-phosphate [1]
  self-cleavage kobs at 640 uM GlcN6P: 4.16e-05 ± 1.7e-05 s⁻¹

## AUAAAAGCGCAAGAACUACAGAAAUGUAGUUGACGGGGAGGAGGUUUAUAGAAUUUUCGGCGGCUGCAUCCAAA [C11A A36G C50A A64C C68A]
glucosamine-6-phosphate [1]
  self-cleavage kobs at 640 uM GlcN6P: < 1e-05 s⁻¹

## AUAAAAGCGCCAAAACUACAGAAAUGUAGUUGACGAGGAGGAGUUUUAUCGAAUUUUCGGCGGAUGCCUCCAAA [G13A G44U]
glucosamine-6-phosphate [1]
  self-cleavage kobs at 640 uM GlcN6P: < 1e-05 s⁻¹
glucosamine-6-phosphate [2]
  self-cleavage kobs at 2500 uM GlcN6P: < 1e-05 s⁻¹

## AUAAAAUCUCCAGAACUACAGAAAUGUAGUUGACGAGGAGGAUGUUUAUCGAAUUUUCGGCGGAUGCCUCCAAA [G7U G9U G43U]
glucosamine-6-phosphate [1]
  self-cleavage kobs at 640 uM GlcN6P: < 1e-05 s⁻¹
glucosamine-6-phosphate [2]
  self-cleavage kobs at 2500 uM GlcN6P: < 1e-05 s⁻¹

## AUAAAAGCGCCAGGACUACAGAAAUGUAGUUGUCCAGGAGGAGGUUUAUCGAAUUUUCGGCGGAUGCCUCCAAA [A14G A33U G35C]
glucosamine-6-phosphate [1]
  self-cleavage kobs at 640 uM GlcN6P: < 1e-05 s⁻¹

## AUAAAAUCGCUCGACCUACAGAAAUGUAGUUGACGAGGAGGAGGUUUGUCGAAUUUUCGGCGGAUGCCUCCAAA [G7U C11U A12C A15C A48G]
glucosamine-6-phosphate [1]
  self-cleavage kobs at 640 uM GlcN6P: < 1e-05 s⁻¹

## AUAAAAGCGCCAGAACUACAGAAAUGUAGUUGACGAAGAGGAGGUUUAUCGAAUUGUCGGCGGUUGCCUCCAAA [G37A U56G A64U]
glucosamine-6-phosphate [1]
  self-cleavage kobs at 640 uM GlcN6P: < 1e-05 s⁻¹
glucosamine-6-phosphate [2]
  self-cleavage kobs at 2500 uM GlcN6P: < 1e-05 s⁻¹

## AUAAAAGCGCCAGAACUACAGAAAUGUAGUUGACGAGGAGGAGGUUUCUGGAAUUUUCGGCGGAUGUUUCCAAA [A48C C50G C67U C68U]
glucosamine-6-phosphate [1]
  self-cleavage kobs at 640 uM GlcN6P: 0.000151 ± 3.3e-05 s⁻¹
glucosamine-6-phosphate [2]
  self-cleavage kobs at 2500 uM GlcN6P: 0.000255 ± 8.7e-05 s⁻¹

## AUAAAAGCGCCAGAACUACAGAAAUGUAGUCGACGAGGAGGAGAUUUAUAGAAUUUUCGGCGGAUGCCUCCAAA [U31C G44A C50A]
glucosamine-6-phosphate [1]
  self-cleavage kobs at 640 uM GlcN6P: < 1e-05 s⁻¹

## AUAAAAGCGCCUGAACUACAGAAAUGUAGUUGACGAGGAGGAGGUUUAUCGAAUUCUCGGCGGAUGCCUCAAAA [A12U U56C C71A]
glucosamine-6-phosphate [1]
  self-cleavage kobs at 640 uM GlcN6P: 5.04e-05 ± 1.6e-05 s⁻¹
glucosamine-6-phosphate [2]
  self-cleavage kobs at 2500 uM GlcN6P: 0.00012 ± 4e-05 s⁻¹

## AUAAAAGGGCCAGAACUACAGAAAUGUAGUAGACGAGGCGGAGUUUUAUCGAAUUUUCGGCGGAUGCCUCCAAA [C8G U31A A39C G44U]
glucosamine-6-phosphate [1]
  self-cleavage kobs at 640 uM GlcN6P: < 1e-05 s⁻¹

## AUAAAAUCGCCAGAACUACAGAAAUGUAGUUGACGAGCAGGAGGCUUAUCGAAUUUUCGGCGGAUGCCUGCAAA [G7U G38C U45C C70G]
glucosamine-6-phosphate [1]
  self-cleavage kobs at 640 uM GlcN6P: < 1e-05 s⁻¹

## AUAAAAGUGCCAGAACUACAGAAAUGUAGUUGACGAGGAGGAGGUUUAUCGAAUUUUCGGCGGAUGCCUGCAAA [C8U C70G]
glucosamine-6-phosphate [1]
  self-cleavage kobs at 640 uM GlcN6P: 0.0011 ± 0.00055 s⁻¹

## AUAAAAGCGCCAGAACUACAGAAAUGUAGUUGACGAGGAGGAGUUUUACCGAAUUUUCGGCUGAUGCCUCCAAA [G44U U49C G62U]
glucosamine-6-phosphate [1]
  self-cleavage kobs at 640 uM GlcN6P: < 1e-05 s⁻¹
glucosamine-6-phosphate [2]
  self-cleavage kobs at 2500 uM GlcN6P: < 1e-05 s⁻¹

## AUAAAAGCGCCAGAACUACAGAAAUGUAGUUGACGAGGAGGAGGUUUAUCGAAUUUUAGGCCGAUGCCUGCAAA [C58A G62C C70G]
glucosamine-6-phosphate [1]
  self-cleavage kobs at 640 uM GlcN6P: 5.64e-05 ± 2.6e-05 s⁻¹

## AUAAAAGCGCCAGAACUACAGAAAUGUAGUUGACGCGGAGGAGGUUUAUCUACUUUUCGGCGGAUGCCUCCAAA [A36C G51U A53C]
glucosamine-6-phosphate [1]
  self-cleavage kobs at 640 uM GlcN6P: < 1e-05 s⁻¹
glucosamine-6-phosphate [2]
  self-cleavage kobs at 2500 uM GlcN6P: < 1e-05 s⁻¹
glucosamine-6-phosphate [3]
  self-cleavage kobs at 10000 uM GlcN6P: < 1e-05 s⁻¹

## AUAAAGGCGCCCGAACUACAGAAAUGUAGUUGACGAGGAGGAGGUUUAUCGAAUGUUCGGCGGAUGCCUCCAAA [A6G A12C U55G]
glucosamine-6-phosphate [1]
  self-cleavage kobs at 640 uM GlcN6P: 7.46e-05 ± 1.3e-05 s⁻¹
glucosamine-6-phosphate [2]
  self-cleavage kobs at 2500 uM GlcN6P: 0.000177 ± 3.7e-05 s⁻¹

## AUAAAAGCGCCAGAACUACAGAAAUGUAGUUGACGAGGAGGAGGUUUAUCGAAUAUUCGGCGGAUGACUGCAAA [U55A C67A C70G]
glucosamine-6-phosphate [1]
  self-cleavage kobs at 640 uM GlcN6P: 0.000113 ± 2.4e-05 s⁻¹
glucosamine-6-phosphate [2]
  self-cleavage kobs at 2500 uM GlcN6P: 7.88e-05 ± 1.6e-05 s⁻¹

## AUAAAAGCGCCAGAACUACAGAAAUGUAGUUGACGAGGAGGAGGCUUAUCGAAUUUUCGGCGGAUGCCUCGAAA [U45C C71G]
glucosamine-6-phosphate [1]
  self-cleavage kobs at 640 uM GlcN6P: 8.57e-05 ± 2.5e-05 s⁻¹
glucosamine-6-phosphate [2]
  self-cleavage kobs at 2500 uM GlcN6P: 5.59e-05 ± 2.2e-05 s⁻¹
glucosamine-6-phosphate [3]
  self-cleavage kobs at 10000 uM GlcN6P: 0.000305 ± 6.9e-05 s⁻¹

## AUAAAAUCGCCAGAACUACAGAAAUGUAGUUGACGAGGAAGACGUUUAUCGAAUUUUCGGCGGAUGCCUCCAAA [G7U G40A G43C]
glucosamine-6-phosphate [1]
  self-cleavage kobs at 640 uM GlcN6P: < 1e-05 s⁻¹
glucosamine-6-phosphate [2]
  self-cleavage kobs at 2500 uM GlcN6P: < 1e-05 s⁻¹

## AUAAAAGCGCCAGAACUACAGAAAUGUAGAUGACGAGGAGGAAGUUUAUCGAAUUUUCGGCGGAUGCCUCCAAA [U30A G43A]
glucosamine-6-phosphate [1]
  self-cleavage kobs at 640 uM GlcN6P: < 1e-05 s⁻¹

## AUAAAUGCGCCAGAACUACAGAAAUGUAGUUGACGAGGAGGAGGUUUAUCGAAUUUUCGGCGGAUGCCUACAAA [A6U C70A]
glucosamine-6-phosphate [1]
  self-cleavage kobs at 640 uM GlcN6P: 0.000142 ± 6.1e-05 s⁻¹
glucosamine-6-phosphate [2]
  self-cleavage kobs at 2500 uM GlcN6P: 2.49e-05 ± 9.6e-06 s⁻¹
